Here are results for three molecules from PMC5441565 (Nature, 2017).

The target in assay [1] is mCherry-LacI-TIRR (human) (UniProt Q9BRJ7). In words: LacO/LacI tethering.
The target in a further assay is GFP-LacI-53BP1 (human) (UniProt Q12888). The assay can be described thus: LacO/LacI tethering.
Assay [2] has as its target TIRR-His (recombinant TIRR) (human, UniProt Q9BRJ7 1-211). The assay can be described thus: ITC.

Chain of TIRR-His (recombinant TIRR) (Q9BRJ7 whole entry): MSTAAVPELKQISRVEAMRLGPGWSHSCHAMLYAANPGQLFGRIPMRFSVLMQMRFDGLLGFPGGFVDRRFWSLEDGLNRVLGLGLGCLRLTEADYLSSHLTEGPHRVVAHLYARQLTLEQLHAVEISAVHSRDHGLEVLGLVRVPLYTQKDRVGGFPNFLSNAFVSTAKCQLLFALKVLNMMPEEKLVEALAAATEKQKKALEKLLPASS
Chain of mCherry-LacI-TIRR (human) (Q9BRJ7 whole entry): as above
Chain of GFP-LacI-53BP1 (human) (Q12888 whole entry): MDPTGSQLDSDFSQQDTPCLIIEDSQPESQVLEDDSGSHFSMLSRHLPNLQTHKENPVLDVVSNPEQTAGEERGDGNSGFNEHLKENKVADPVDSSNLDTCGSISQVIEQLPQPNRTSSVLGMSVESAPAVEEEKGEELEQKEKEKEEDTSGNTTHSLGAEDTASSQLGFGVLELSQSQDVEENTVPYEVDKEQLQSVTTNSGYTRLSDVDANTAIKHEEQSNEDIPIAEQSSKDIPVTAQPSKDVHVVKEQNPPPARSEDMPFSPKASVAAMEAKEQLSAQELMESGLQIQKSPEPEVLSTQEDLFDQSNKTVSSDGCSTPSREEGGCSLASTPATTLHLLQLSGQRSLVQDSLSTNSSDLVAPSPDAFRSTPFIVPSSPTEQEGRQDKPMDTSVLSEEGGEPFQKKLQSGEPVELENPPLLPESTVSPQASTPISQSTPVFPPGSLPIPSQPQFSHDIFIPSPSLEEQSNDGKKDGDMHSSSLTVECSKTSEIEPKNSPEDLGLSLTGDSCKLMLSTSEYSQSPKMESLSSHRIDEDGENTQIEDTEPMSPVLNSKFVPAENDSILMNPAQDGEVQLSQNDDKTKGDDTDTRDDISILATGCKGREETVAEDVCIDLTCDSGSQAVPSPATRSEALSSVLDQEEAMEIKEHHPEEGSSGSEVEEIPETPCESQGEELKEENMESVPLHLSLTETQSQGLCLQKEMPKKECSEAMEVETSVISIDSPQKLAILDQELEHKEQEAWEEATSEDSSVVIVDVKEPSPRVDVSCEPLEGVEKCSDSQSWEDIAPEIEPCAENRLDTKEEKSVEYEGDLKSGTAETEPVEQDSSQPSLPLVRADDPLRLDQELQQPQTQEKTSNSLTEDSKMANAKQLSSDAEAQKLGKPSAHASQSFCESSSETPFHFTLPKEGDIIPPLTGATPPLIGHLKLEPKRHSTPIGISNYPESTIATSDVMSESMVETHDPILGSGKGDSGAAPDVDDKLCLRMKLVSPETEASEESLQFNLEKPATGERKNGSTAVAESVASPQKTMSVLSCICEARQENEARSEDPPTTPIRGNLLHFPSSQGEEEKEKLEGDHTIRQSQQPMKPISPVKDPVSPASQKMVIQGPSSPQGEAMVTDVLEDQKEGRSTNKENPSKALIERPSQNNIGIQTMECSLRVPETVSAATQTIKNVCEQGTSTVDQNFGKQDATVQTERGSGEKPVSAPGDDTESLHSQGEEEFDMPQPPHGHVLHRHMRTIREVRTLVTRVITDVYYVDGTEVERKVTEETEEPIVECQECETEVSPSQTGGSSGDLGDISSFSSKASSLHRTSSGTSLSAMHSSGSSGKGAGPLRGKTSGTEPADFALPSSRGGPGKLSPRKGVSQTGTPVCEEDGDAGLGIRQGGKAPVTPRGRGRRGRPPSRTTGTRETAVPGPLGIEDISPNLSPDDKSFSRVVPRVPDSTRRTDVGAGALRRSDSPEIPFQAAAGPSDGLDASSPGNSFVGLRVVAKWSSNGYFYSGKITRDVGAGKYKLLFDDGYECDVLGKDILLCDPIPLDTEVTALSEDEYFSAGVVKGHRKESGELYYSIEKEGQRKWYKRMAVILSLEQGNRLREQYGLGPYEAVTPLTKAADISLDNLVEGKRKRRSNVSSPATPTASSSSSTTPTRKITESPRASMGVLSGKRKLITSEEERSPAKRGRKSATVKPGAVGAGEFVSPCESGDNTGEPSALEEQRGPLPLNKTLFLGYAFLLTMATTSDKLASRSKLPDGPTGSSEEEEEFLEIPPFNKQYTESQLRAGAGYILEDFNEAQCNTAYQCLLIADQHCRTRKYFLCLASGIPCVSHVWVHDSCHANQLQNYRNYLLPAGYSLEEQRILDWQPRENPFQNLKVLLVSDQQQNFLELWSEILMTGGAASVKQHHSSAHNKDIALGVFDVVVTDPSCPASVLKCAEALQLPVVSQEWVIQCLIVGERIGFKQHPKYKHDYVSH

“53BP1 (P53-binding protein 1), endogenous (from UniProt Q12888 1-1972) (natural protein)” yielded a percent of cells with co-localisation on the LacO array (% of the cells) in assay [1] of 57.5.

In the assay with GFP-LacI-53BP1 (human), “mCherry-TIRR (from UniProt Q9BRJ7 1-211) (natural protein)” displayed a percent of cells with co-localisation on the LacO array (% of the cells) of 72.

B1: 53BP1 tandem Tudor domain (for ITC and NMR) (domain or fragment)
chain: NSFVGLRVVAKWSSNGYFYSGKITRDVGAGKYKLLFDDGYECDVLGKDILLCDPIPLDTEVTALSEDEYFSAGVVKGHRKESGELYYSIEKEGQRKWYKRMAVILSLEQGNRLREQYGLG
modifications: 15N-labelled for NMR; limits from PDB 2G3R (GHM tag remnant left out)
By Kd is commonly meant a measure of binding affinity in units of concentration. What is called stoichiometry N is the number of molecules, sites or subunits per partner or assembly. On to B1, for which, in assay [2], the Kd is 790 nM and the “stoichiometry N” value is 1.
